Seven molecules from patent US8460929B2, “Methods of tissue generation and tissue engineered compositions” (The Regents of the University of California, priority 2007, dated 2013) can be followed below.

Assay [1] has as its system isolated ureteric bud. Nature of the assay: Isolated ureteric bud culture in 3D extracellular matrix gel (soluble factor effects). In kind it is cell-based, rat. The conditions noted are these: for induction of isolated UB, WD, or UB and WD branching morphogenesis: factor alone or in combination with GDNF, without BSN-CM; for Shape: rat E13 isolated UB in 3D gel, GDNF 125 ng/ml, HRG 500 ng/ml, FGF1 250 ng/ml, FGF7 50 ng/ml, PTN purified from BSN-CM; for growth of the isolated UB, single soluble factor: factor by itself. The method, then: In the case of culture of the isolated UB, WD, or UB and WD, the isolated kidneys were trypsinized for 15 min at 37° C. in L-15 media containing 2 μg/ml trypsin (Sigma). Trypsin digestion was arrested by the addition of 10% FCS and the kidneys were removed to fresh L-15 where the UBs, WDs, or UBs and WDs were isolated from surrounding MM by mechanical dissection. isolated UBs, WDs, or UBs and WDs were suspended within an extracellular matrix gel [1:1 mixture of growth factor reduced Matrigel™ (BD) and Type 1 collagen (BD)] applied to the top of a polyester Transwell filter (0.4 μm pore size; Corning-Costar). The Transwells were placed within individual wells of a 24-well tissue culture dish containing 400 μl of either whole BSN-CM, purified tractions of BSN-CM, or D-12 which were supplemented with human recombinant FGF1 (250 ng/ml; R&D Systems), rat recombinant GDNF (125 ng/ml; R&D Systems) and 10% FCS and cultured. Phase-contrast photomicrographs of the developing UB, WD, or UB and WD were taken using a RT-Slider Spot Digital Camera (Diagnostic Instruments Inc.) attached to a Nikon Eclipse TE300 Inverted Microscope.
Isolated ureteric bud, Wolffian duct bud, or ureteric and Wolffian duct buds were obtained from whole embryonic kidneys as described herein. Briefly, the embryonic kidney was lightly digested with trypsin and the UB, WD, or UB and WD were separated from the MM using fine-tipped needles. The UBs, WDs, or UBs and WDs were suspended within a matrix containing growth factor reduced Matrigel™ and Type I collagen and buffered by HEPES, NaHCO3, and DMEM to a pH of approximately 7.2. This mixture containing the suspended UB, WD, or UB and WD was applied to the top of the Transwell filter and the purified factor is applied to the well. The factor is supplemented with GDNF (125 ng/ml) and 10% FCS, and the isolated UBs, WDs, or UBs and WDs are cultured at 37° C. and humidified 5% CO2 atmosphere and branching morphogenesis, was assayed.
The entire urogenital tract was isolated from timed pregnant Holtzman rats at embryonic day 13 (E13). Kidney rudiments were dissected and lightly digested in trypsin for 15 minutes, after which the ureteric buds were mechanically separated from the metanephric mesenchyme. For the growth factor optimization, the buds were suspended within a matrix containing growth factor-reduced Matrigel™ and DMEM/F12 (50:50 v/v) on a 0.4 μm pore sized Transwell filter and BSN-conditioned media supplemented with 10% FCS and 1% antibiotics was placed beneath the filter. GDNF (125 ng/ml), FGF1 (250 ng/ml), FGF7 (50 ng/ml), HRG (500 ng/ml), PTN (purified from BSN-CM) was added to the media in various combinations to achieve a “minimal” and “most robust” growth factor condition. For the matrix optimization, isolated buds were cultured in a BSN-CM supplemented with 10% FCS, GDNF (125 ng/ml), FGF1 (250 ng/ml), and 1% antibiotics. Isolate buds were suspended in matrices (natural and artificial) consisting of growth factor reduced Matrigel™ diluted with DMEM/F12 (15%, 25%, 50%, 75% and 100%), type I collagen (3.0 mg/ml), Puramatrix™, 1% alginate solution (crosslinked with 100 mM CaCl2), and type IV collagen (0.75 mg/mL). In some cases, type I collagen, laminin 1, alginate or type IV collagen were added to a 50% growth factor reduced Matrigel™ solution. All matrix solutions were supplemented with DMEM and buffered by HEPES and NaHCO3 to a pH of approximately 7.2. The isolated buds were then cultured at 37° C. in a humidified 5% CO2 atmosphere.

Assay [2] deals with UB, WD, or UB and WD derived cells. Nature of the assay: UB cell three-dimensional culture (tubulogenic activity). The settings on record: collagen/Matrigel gel, 1% FCS, 4 days. It counts as cell-based, mouse. The method, then:
Confluent monolayers of UBs, WDs, or UBs and WDs were removed from tissue culture dishes by light trypsinization and the cells. 20,000 cells/ml were suspended in an extracellular matrix gel composed of 80% Type 1 collagen and 20% growth factor-reduced Matrigel™. 100 μl of the UB, WD, or UB and WD cell-containing gel was then aliquoted into individual wells of a 96-well tissue culture plate. After gelation, 100 μl of growth medium (DMEM/F12 with or without purified pleiotrophin) supplemented with 1% FCS was applied to each well and the cultures were incubated at 32° C. in 5% CO2 and 100% humidity. Following 4 days of culture, the percentage of cells/colonies with processes was counted as an indicator of the tubulogenic activity. Phase-contrast photomicrographs were taken as described herein.

Assay [3] concerns whole embryonic kidney. The experiment in a line: Whole embryonic kidney organ culture. It counts as cell-based, rat. The source says:
Timed pregnant female Sprague-Dawley rats at day 13 of gestation (day 0 coincided with appearance of the vaginal plug) were sacrificed and the uteri were removed. The embryos were dissected free of surrounding tissues and the kidneys were isolated. For the culture of the whole kidney rudiment, 2-3 kidneys were applied directly to the top of a polyester Transwell filter (0.4 μm pore size; Corning-Costar). The Transwells were then placed within individual wells of a 24-well tissue culture dish containing 400 μl DMEM/F12 supplemented with 10% FCS with or without purified pleiotrophin. Following 7 days of culture, the kidneys were fixed in 2% paraformaldehyde and doublestained with fluorescein-conjugated Dolichos biflorus, a lectin which binds specifically to UB, WD, or UB and WD-derived structures, and rhodamine conjugated peanut agglutinin, a lectin which binds to structures derived from the MM. Fluorescent staining was detected using a laser-scanning confocal microscope (Zeiss).

Assay [4] relates to Wolffian duct. The experiment in a line: Wolffian duct budding in vitro. In kind it is cell-based, rat. The settings on record: whole mesonephros on Transwell filter, 10% serum and 10 ng/mL GDNF, two days. The text has this:
The entire urogenital tract was isolated from timed pregnant Holtzman rats at embryonic day 13 (E13). Kidney rudiments were dissected, and the Wolffian duct was transected and removed. In some cases, the mesonephric tubules and most of the intermediate mesoderm were mechanically separated from the WD leaving a thin layer of the intermediate mesoderm that remained adherent to the WD. In some cases, the intermediate mesoderm was carefully stripped away in its entirety so that the epithelial tube of the WD remained intact. The WD with mesonephros and the WD with intermediate mesoderm were placed on 0.4 μm pore size Transwell filters and cultured at the air-media interface. The isolated WD devoid of all intermediate mesoderm was suspended in a matrix containing growth factor reduced Matrigel'm and DMEM/F12 (50:50 v/v) on a 0.4 μm pore sized Transwell filter. All cultures were carried out at 37° C. in a fully humidified 5% CO2 atmosphere in the presence of DMEM/F12 (50:50) media supplemented with 10% fetal calf serum (FCS), GDNF (10 ng/mL for the WD plus mesonephros, 125 ng/ml WD plus mesoderm and isolated WD) and, if necessary, either FGF1 (250 ng/ml) or FGF7 (50 ng/ml).

As to fibroblast growth factor-1 [FGF1], in assay [1] (250 ng/ml FGF1), the “effect of added FGF1 on inductive capacity of BSN-CM” value is “could potentiate the activity of the BSN-CM”. In assay [1], the “induction of isolated UB, WD, or UB and WD branching morphogenesis” value is recorded as “not sufficient to induce”; the Shape entry is recorded as “tubular”.

On to heregulin [HRG], for which, in assay [1], the “growth of the isolated UB, single soluble factor” value (“growth of the isolated UB” below) is given as “did not support growth”.

Regarding “Hepatocyte growth factor [HGF, reference compound]”, in assay [1], the “induction of isolated UB, WD, or UB and WD branching morphogenesis” value was “does not induce branching morphogenesis”.

B1: pleiotrophin (protein, UniProt P21246 33-168, looked up)
Pleiotrophin: GKKEKPEKKVKKSDCGEWQWSVCVPTSGDCGLGTREGTRTGAECKQTMKTQRCKIPCNWKKQFGAECKYQFQAWGECDLNTALKTRTGSLKRALHNAECQKTVTISKPCGKLTKPKPQAESKKKKKEGKKQEKMLD
As to B1, in assay [1] (156 ng/ml-2.5 pg/ml purified pleiotrophin), the “morphology of the branching UB, lower concentrations” value was “dichotomous branching and elongation of the stalk”. The “concentrations useful for morphogenetic activity” value in assay [1] (cultures in collagen IV or basement membrane Matrigel) fell in the range of 200 to 600 ng/mL. For the same molecule, in assay [1], the “growth of the isolated UB” value is recorded as “did not support growth”. Moreover, the “branching morphogenesis of the isolated UB, pleiotrophin purified from 3T3 conditioned medium” value in assay [1] (pure pleiotrophin isolated from Swiss 3T3 conditioned medium) is on record as “capable of inducing impressive branching morphogenesis”. Further, in assay [1] (supplemented with GDNF, in the absence of FGF1), the “induction of UB, WD, or UB and WD branching morphogenesis” value is on record as “capable of inducing”. The “morphology of the branching UB, high concentration” value in assay [1] (≧5 μg/ml purified pleiotrophin) is on record as “robust proliferation with less elongation”. The “formation of branching structures of UB cells in three dimensional culture” value in assay [2] is on record as “capable of inducing the formation of branching structures”. Also, in assay [3] (exogenously added pleiotrophin, 7 days), the “growth of the UB in whole embryonic kidney organ culture” value is “disproportionately stimulated growth”. In addition, in assay [3] (high concentrations of pleiotrophin), the “Nephron induction visualized with PNA lectin” value is “appeared to be normal”.

B2: recombinant human pleiotrophin: recombinant human pleiotrophin produced in the insect cell line (R&D systems) (protein, UniProt P21246 33-168, looked up)
Pleiotrophin: B1 Pleiotrophin
B2: the “branching morphogenesis of the isolated UB, WD, or UB and WD” value in assay [1] (E13 rat bud in extracellular matrix gel, with GDNF) is “unable to induce”.

B3: fibroblast growth factor-7 (protein, UniProt P21781 32-194, looked up)
Fibroblast growth factor 7: CNDMTPEQMATNVNCSSPERHTRSYDYMEGGDIRVRRLFCRTQWYLRIDKRGKVKGTQEMKNNYNIMEIRTVAVGIVAIKGVESEFYLAMNKEGKLYAKKECNEDCNFKELILENHYNTYASAKWTHNGGEMFVALNQKGIPVRGKKTKKEQKTAHFLPMAIT
notes: growth factor obtained from R&D Systems
Turning to B3, in assay [1], the Shape result was “globular”.

B4: glial cell-derived neurotrophic factor (protein, UniProt P39905 78-211, looked up)
Glial cell line-derived …: SPDKQMAVLPRRERNRQAAAANPENSRGKGRRGQRGKNRGCVLTAIHLNVTDLGLGYETKEELIFRYCSGSCDAAETTYDKILKNLSRNRRLVSDKVGQACCRPIAFDDDLSFLDDNLVYHILRKHSAKRCGCI
notes: as for B3
B4: in assay [1], the “growth of the isolated UB” value was “did not support growth”. The Wolffian duct budding result in assay [4] is “numerous budding events occurred at multiple foci along the WD”.
